# Measured values reported in the supplement of paper PMC10724198.
# ± gives the standard deviation of the averaged measurements.
# Tested on: Saccharomyces cerevisiae
# Experiment: protein stability index of tFT-peptide fusion (C-terminal peptide) (PSI (0-1 scale)); higher = more stable (slower turnover)
# Conditions: genetic background: das1 deletion; temperature: 30 C
# Method: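 MPS profiling in S. cerevisiae of the yeast C-terminome library: the last 12 aa of each annotated ORF are fused to the C-terminus of a sfGFP-mCherry timer, after a GGGS linker. Cells are FACS-sorted into 8 mCherry/sfGFP bins and deep-sequenced. PSI runs from 0 (unstable) to 1 (stable); wild type and das1Δ backgrounds, two technical replicates each.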
row,Sequence,protein stability index
1,RQEYKFKKSLLT [YKL131W C-terminal 12 aa],0.679 ± 0.018
2,RQMTSSFFLVFA [YDR118W-A C-terminal 12 aa],0.51187 ± 0.00022
3,RQNTLSLWRYRK [RPL15A C-terminal 12 aa],0.682 ± 0.0084
4,RQTRNQTKELDS [DPB11 C-terminal 12 aa],0.703 ± 0.033
5,RRGDMCDVKENI [PUS7 C-terminal 12 aa],0.6678 ± 0.0015
6,RRHYSNEDSSFL [APC9 C-terminal 12 aa],0.7169 ± 0.0022
7,RRPAVIKALRGE [URE2 C-terminal 12 aa],0.6904 ± 0.00095
8,RRSKKWYSFIFN [SCO2 C-terminal 12 aa],0.75 ± 0.018
9,RRTSSISTYLIL [YBL107W-A C-terminal 12 aa],0.735 ± 0.027
10,RRVKSLKTSKKH [PAL2 C-terminal 12 aa],0.72 ± 0.017
11,RSIKRPELGLRV [STT3 C-terminal 12 aa],0.6814 ± 0.0017
12,RSLSSRSKECSK [NOC3 C-terminal 12 aa],0.71 ± 0.0075
13,RSTAQRGGYSAV [ATG27 C-terminal 12 aa],0.708 ± 0.0086
14,RVDGKIVVTPQI [RPC53 C-terminal 12 aa],0.7011 ± 0.0011
15,RVFEFLEKQKRE [MRPL40 C-terminal 12 aa],0.722 ± 0.025
16,RVVDLIEYVAKA [TDH1 C-terminal 12 aa],0.6636 ± 0.0045
17,RYAKIHEKHVSA [ASN2 C-terminal 12 aa],0.7157 ± 0.0026
18,RYFCHLFRCSII [YDL022C-A C-terminal 12 aa],0.722 ± 0.04
19,SAITKNLLDDFV [RAV1 C-terminal 12 aa],0.735 ± 0.05
20,SAYMYTKRRFGF [MNR2 C-terminal 12 aa],0.712 ± 0.021
21,SDIFSFLDETYE [PHO92 C-terminal 12 aa],0.7281 ± 0.007

row,Sequence,protein stability index
1,SENRFELAYFTS [YLR317W C-terminal 12 aa],0.728 ± 0.027
2,SEPVKQVLDSKE [NMA2 C-terminal 12 aa],0.749 ± 0.039
3,SFERLLVETIYS [ALG13 C-terminal 12 aa],0.5878 ± 0.0031
4,SFLFGLYLLLHP [SPR2 C-terminal 12 aa],0.4995 ± 0.0033
5,SFSDLTLHAIEY [BER1 C-terminal 12 aa],0.724 ± 0.031
6,SFTDVLGQEQFI [YLR252W C-terminal 12 aa],0.7269 ± 0.0054
7,SGKFNGKKKSRR [FAF1 C-terminal 12 aa],0.693 ± 0.029
8,SHMILYQQQECY [YER181C C-terminal 12 aa],0.451 ± 0.0097
9,SHPSFKQLLIQK [MLO1 C-terminal 12 aa],0.677 ± 0.031
10,SIFSYCIIYFIS [YDR524C-A C-terminal 12 aa],0.222 ± 0.013
11,SIICIETNKAIR [HPM1 C-terminal 12 aa],0.705 ± 0.016
12,SIIFLLLSYLLF [SAG1 C-terminal 12 aa],0.392 ± 0.042
13,SIINPSSNGCNK [YNL235C C-terminal 12 aa],0.702 ± 0.028
14,SILGMQDMWKAT [PEX11 C-terminal 12 aa],0.707 ± 0.017
15,SILTHSTSPDSR [HYM1 C-terminal 12 aa],0.727 ± 0.033
16,SITLDDLENIFN [GDS1 C-terminal 12 aa],0.735 ± 0.026
17,SKSGSGGCCIIS [RAS2 C-terminal 12 aa],0.736 ± 0.0091
18,SLIPRFDNLLSK [GGC1 C-terminal 12 aa],0.7062 ± 0.0052
19,SLLLEKLDPEIE [UBX5 C-terminal 12 aa],0.731 ± 0.056
20,SLNLILISMTFI [YCR097W-A C-terminal 12 aa],0.429 ± 0.0075
21,SLSSRGKIFSST [EFR3 C-terminal 12 aa],0.698 ± 0.01

row,Sequence,protein stability index
1,SNYNNRTTDMPL [PSP2 C-terminal 12 aa],0.6781 ± 0.0018
2,SPFIPKKRKPRS [SEN1 C-terminal 12 aa],0.6983 ± 0.0065
3,SPIQLKDLESQI [SYS1 C-terminal 12 aa],0.677 ± 0.019
4,SQAIPKKKKVLE [MEK1 C-terminal 12 aa],0.6937 ± 0.0011
5,SQGNVYLPGVAW [NOC4 C-terminal 12 aa],0.707 ± 0.009
6,SQLLNLLQDLDT [ENV7 C-terminal 12 aa],0.696 ± 0.02
7,SRFRTNIAFITQ [YJL015C C-terminal 12 aa],0.71 ± 0.012
8,SRGHDLASEYPL [ERS1 C-terminal 12 aa],0.706 ± 0.015
9,SRLFSEEKSSVH [YJL150W C-terminal 12 aa],0.7239 ± 0.0066
10,SRQFEQNLQIND [SLF1 C-terminal 12 aa],0.7394 ± 0.0052
11,SRSGPDSTNIKL [MPP10 C-terminal 12 aa],0.688 ± 0.011
12,SSIFVRVYKFWC [BAP3 C-terminal 12 aa],0.698 ± 0.018
13,SSNFASNIFSLF [YBR089W C-terminal 12 aa],0.7346 ± 0.0049
14,SSQQLTLRPPLG [YGL109W C-terminal 12 aa],0.6922 ± 0.0068
15,SSSSNFLEESSS [YER148W-A C-terminal 12 aa],0.7024 ± 0.00079
16,SSTTALDALNKE [TGL1 C-terminal 12 aa],0.696 ± 0.0083
17,SSVKNSVEMTDF [TDA11 C-terminal 12 aa],0.7099 ± 0.0049
18,SSYNSNVGHIKN [WHI3 C-terminal 12 aa],0.705 ± 0.019
19,STIQTTSVDPTT [BSC1 C-terminal 12 aa],0.7104 ± 0.0039
20,STIRRLREMVEA [RPL43A C-terminal 12 aa],0.547 ± 0.013
21,STKILETSANYL [RVB1 C-terminal 12 aa],0.69 ± 0.019

row,Sequence,protein stability index
1,STLSRPFTWEEI [ATG34 C-terminal 12 aa],0.715 ± 0.031
2,SVHLDQLLDGKE [CSI2 C-terminal 12 aa],0.714 ± 0.0086
3,SVLQQTSKEPFW [HOS4 C-terminal 12 aa],0.732 ± 0.016
4,SYEIFEGSKKVM [CET1 C-terminal 12 aa],0.699 ± 0.033
5,SYKSNQPSSQNT [MDM36 C-terminal 12 aa],0.672 ± 0.017
6,TAAQMLEVQNEA [ARI1 C-terminal 12 aa],0.6837 ± 0.0021
7,TALDYVSEKKKN [STE24 C-terminal 12 aa],0.679 ± 0.012
8,TDGPNEKWLPDY [SKS1 C-terminal 12 aa],0.7099 ± 0.0056
9,TDISGEKNSSKI [RLM1 C-terminal 12 aa],0.7039 ± 0.0055
10,TDTTLIYDIDLE [SPT8 C-terminal 12 aa],0.709 ± 0.036
11,TEEVEKAISKSQ [YFH1 C-terminal 12 aa],0.7018 ± 0.0027
12,TESENDALDDLL [TLG2 C-terminal 12 aa],0.714 ± 0.013
13,TGMGAAAIFIKE [POT1 C-terminal 12 aa],0.688 ± 0.04
14,TIDFFDPVKLKR [YEL025C C-terminal 12 aa],0.724 ± 0.008
15,TKDGEVVKESKK [PET117 C-terminal 12 aa],0.677 ± 0.034
16,TKEEIMHGLQAK [RPN5 C-terminal 12 aa],0.682 ± 0.024
17,TLEDLGAKVSLE [MNP1 C-terminal 12 aa],0.696 ± 0.011
18,TLNFEEARKEYV [YDR509W C-terminal 12 aa],0.713 ± 0.016
19,TNGNKSCLYWRV [FMP25 C-terminal 12 aa],0.678 ± 0.012
